The series deals with SNAPtide (FITC/DABCYL), List Biological Laboratories product #521.

With “BoNT/A complex (botulinum neurotoxin type A with neurotoxin associated proteins, Hall A strain)”, the “Km of SNAPtide conversion, non-bead based assay (free toxin)” value was “non-bead based assay: typical Km=0.7 µM” and the “Km of the immobilized enzyme against the free enzyme” value was 3.2-fold lower than for the free enzyme.
